Test results from patent US20240076389A1 (NATIONAL RESEARCH COUNCIL OF CANADA, published 2024).
One block for each binder: values may come before it.

Legend:
[1] = molecular target: T1, recombinant cynomolgus AXL extracellular domain (cynomolgus); test: SPR, VHH-Fc captured, AXL ECD flowed, single-concentration kinetics (estimate)
T1 construct: range 1-449; also called Cyno AXL; cyno AXL ECD
Description: (§1) For VH Hs and VHH-Fcs, binding to human and cynomolgus AXL ECD was assessed using either a Biacore T200 instrument or a Biacore 3000 instrument. Either human AXL ECD or anti-human Fc antibody was immobilized on a research-grade CM5 series S sensor chip (T200, rhAXL ECD) or a C1 sensor chip (3000, anti-human Fc) using amine coupling in acetate buffer. VHH-Fcs were captured on anti-human Fc surfaces. Either monomeric VHHs (for rhAXL ECD surfaces) or human and cyno AXL ECD (for VHH-Fc surfaces) were flowed over the surfaces at different concentration ranges. Running buffers were HBS-EP (3000) and HBS-EP+(T200). Flow rates were 10-40 ul/min. All binding studies were performed at 25° C. Surfaces were regenerated using 10 mM glycine, pH 1.5.

[2] = molecular target: T2, recombinant human AXL extracellular domain, C-terminally His8-tagged (rhAXL-ECD) (human, UniProt P30530 26-451); test: as above
T2 construct: Made in CHO cells; also called (rh)AXL-ECD His8; human AXL ECD
T2 sequence: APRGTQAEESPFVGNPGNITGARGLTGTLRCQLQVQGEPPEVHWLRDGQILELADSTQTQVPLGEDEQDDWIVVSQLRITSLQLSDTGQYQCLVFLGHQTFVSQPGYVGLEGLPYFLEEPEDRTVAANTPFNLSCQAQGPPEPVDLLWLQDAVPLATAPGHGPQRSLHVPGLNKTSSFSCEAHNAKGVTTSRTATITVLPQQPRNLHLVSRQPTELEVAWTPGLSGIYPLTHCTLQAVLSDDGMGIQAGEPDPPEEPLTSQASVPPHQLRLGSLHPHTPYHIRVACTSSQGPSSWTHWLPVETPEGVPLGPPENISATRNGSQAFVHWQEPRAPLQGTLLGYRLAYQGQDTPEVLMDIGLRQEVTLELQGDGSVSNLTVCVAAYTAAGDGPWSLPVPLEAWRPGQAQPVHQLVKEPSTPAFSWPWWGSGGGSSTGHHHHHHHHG
Description: as §1

[3] = molecular target: T3, human AXL expressed on the cell surface of tumor cell lines (human, UniProt P30530 26-894); test: FACS on NCI-H292 cells, apparent Kd
T3 construct: whole, on cells; also called cell surface-expressed AXL; cell-based AXL
T3 sequence (looked up): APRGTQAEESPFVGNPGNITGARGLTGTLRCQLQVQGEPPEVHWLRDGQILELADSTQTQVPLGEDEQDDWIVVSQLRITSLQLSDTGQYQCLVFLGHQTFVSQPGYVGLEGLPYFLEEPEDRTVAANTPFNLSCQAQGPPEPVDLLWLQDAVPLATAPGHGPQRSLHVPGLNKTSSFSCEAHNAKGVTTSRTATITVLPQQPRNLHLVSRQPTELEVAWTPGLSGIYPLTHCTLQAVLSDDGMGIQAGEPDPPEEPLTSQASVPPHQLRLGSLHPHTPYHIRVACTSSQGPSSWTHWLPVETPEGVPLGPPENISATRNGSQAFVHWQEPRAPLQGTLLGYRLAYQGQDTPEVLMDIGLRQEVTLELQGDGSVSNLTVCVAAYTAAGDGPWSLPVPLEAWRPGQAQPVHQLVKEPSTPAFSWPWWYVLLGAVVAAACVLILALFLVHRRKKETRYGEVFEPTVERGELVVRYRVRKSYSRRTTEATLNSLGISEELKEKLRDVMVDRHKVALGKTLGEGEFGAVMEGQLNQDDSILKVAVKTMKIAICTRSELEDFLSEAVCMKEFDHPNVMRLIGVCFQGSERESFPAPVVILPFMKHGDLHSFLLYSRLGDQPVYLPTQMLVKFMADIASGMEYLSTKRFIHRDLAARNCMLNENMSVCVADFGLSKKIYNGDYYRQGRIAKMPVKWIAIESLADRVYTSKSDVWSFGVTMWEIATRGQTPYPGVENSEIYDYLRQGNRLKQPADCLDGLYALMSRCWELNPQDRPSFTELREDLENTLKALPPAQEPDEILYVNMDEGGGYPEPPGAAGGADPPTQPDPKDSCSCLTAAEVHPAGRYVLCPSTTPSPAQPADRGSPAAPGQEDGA
Description: (§2) FACS binding assay. Adherent cells were dissociated with non-enzymatic Sigma Cell Dissociation Solution (Cat. No. C5789). Cells suspensions were added to polypropylene, V-bottom 96-well plates and incubated for 2 hours on ice with primary antibodies at concentrations ranging from 100 nM to 0.001 nM or at a single dose of 100 nM (for the non-specific control). After incubation and washes, cells were incubated with fluorescently labeled secondary antibody (Alexa Fluor® 488 anti-human IgG from Jackson Cat. No 709-546-098) for 1 hour on ice, then washed. Cell viability was determined using Fixable viability dye 450 (20 min on ice). Stained cells were fixed in 1% formaldehyde at 4° C. and stored at 4° C. until acquisition which was performed the next day.
(§3) Binding of recombinant chimeric Abs to three cell lines was assessed by FACS as described above. The apparent Bmax and Kd determination is shown below in Table 14.

[4] = molecular target: T3, human AXL expressed on the cell surface …; test: FACS on SKOV3 cells, apparent Kd
Description: as §2, §3

[5] = molecular target: T1, recombinant cynomolgus AXL …; test: SPR Biacore T200, mAb captured on anti-Fc, AXL ECD flowed, multi-cycle kinetics
Description: (§4) Surface plasmon resonance. For murine mAbs, binding to human and cynomolgus AXL ECD was assessed using a Biacore T200 instrument. Briefly, either anti-mouse or anti-human Fc antibody was immobilized on a research-grade CM5 series S sensor chip using amine coupling in acetate buffer. Murine or recombinant chimeric murine-human mAbs (mouse VH/VL; human constant regions) were captured, then recombinant human or cyno AXL ECD was flowed over the surface at different concentration ranges (0.1-500 nM) depending on the antibody. The running buffer was PBS/Tween-20 and the flow rate 100 uL/min. All binding studies were performed at 25° C. Surfaces were regenerated using 10 mM glycine, pH 1.5.

[6] = molecular target: T2, recombinant human AXL extracellular …; test: as above
Description: as §4

Kd [1]: 8000 pM
koff [1]: 0.0072 s⁻¹
kon [1]: 920000 M⁻¹ s⁻¹
Kd [2]: 6000 pM
koff [2]: 0.0072 s⁻¹
kon [2]: 1.3e+06 M⁻¹ s⁻¹
B1: NRC-sdAb001-Fc (VHH-human IgG1 Fc fusion) (Fc fusion)
chain: QVKLEESGGGLVQAGGSLRLSCTASASISSFDIMGWYRQAPGKQRELVAAITTLDIANYRDSVKGRFTISRDNAKNTVYLQMDSLKPEDTARYHCAAFQSDQNYWGQGTQVTVSS
notes: VHH fused N-terminally to human IgG1 Fc, made in HEK293 cells; also called NRC-sdAb0001-Fc; NRC-sdAb001-hIgG1; not shown: human IgG1 Fc

Kd [3]: 70.8 pM
Kd [4]: 60.8 pM
Kd [5]: 200 pM
koff [5]: 0.00023 s⁻¹
kon [5]: 1.8e+06 M⁻¹ s⁻¹
Kd [6]: 400 pM
koff [6]: 0.00056 s⁻¹
kon [6]: 1.2e+06 M⁻¹ s⁻¹
B2: hFC-F107-10G1 (antibody, human IgG1, kappa, V domains shown)
VH: EVNLVESGGGVVKPGASLKLSCEASGFTFSNYGMSWVRQTSDKRLEWVASISGGGGRTYYLDNVKGRFIISRENAKNTLYLQMSSLKSEDTALFYCARGARASYFAMDYWGQGSSVTVSS
VL: VIVMTQSHKFMSTSVGDRVSITCKASQDVTTAVAWYQQKPGQSPKLLIYWASTRHTGVPDRFTGSGSGTDYSLTISNVQTEDLAFYYCQQHFTTPLTFGAGTKLELKR
notes: Chimeric mAb, human IgG1 / human kappa constant regions; also called mAb F107-10G1
